The values below come from patent publication US20180273587A1 (AILERON THERAPEUTICS, published 2018).

A word on the Ki: it is a measure of affinity in units of concentration, obtained from inhibition or displacement. Read a high Ki as weaker binding.

Common to all, as to assay: Ki table, method not stated
One test has as its target T1, MCL-1 (UniProt Q07820 172-327, limits assumed).
T1 construct: also called Myeloid cell leukemia 1

A further test has as its target BCL-XL (UniProt Q07817 1-209).
The target of a further test is BCL-2 (UniProt P10415 1-217, limits assumed).

Positions of bridges follow the written chain, without caps; N, C: chain ends. Non-standard residues stand in square brackets, D forms with d. R8 = C=CCCCCCC[C@@](C)(N)C(=O)O; S5 = C=CCCC[C@](C)(N)C(=O)O

Sequence of BCL-XL (Q07817 1-209): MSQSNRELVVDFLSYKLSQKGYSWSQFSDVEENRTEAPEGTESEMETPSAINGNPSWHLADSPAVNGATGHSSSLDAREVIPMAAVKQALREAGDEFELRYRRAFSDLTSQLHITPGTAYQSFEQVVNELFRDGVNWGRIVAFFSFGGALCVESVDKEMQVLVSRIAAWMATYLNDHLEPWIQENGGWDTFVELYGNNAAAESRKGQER
T1 sequence (Q07820 172-327 limits assumed): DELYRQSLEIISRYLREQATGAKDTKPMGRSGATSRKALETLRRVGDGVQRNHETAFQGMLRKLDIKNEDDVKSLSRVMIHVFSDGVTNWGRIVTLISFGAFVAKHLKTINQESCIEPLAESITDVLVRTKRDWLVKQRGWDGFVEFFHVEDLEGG
Sequence of BCL-2 (P10415 1-217 limits assumed): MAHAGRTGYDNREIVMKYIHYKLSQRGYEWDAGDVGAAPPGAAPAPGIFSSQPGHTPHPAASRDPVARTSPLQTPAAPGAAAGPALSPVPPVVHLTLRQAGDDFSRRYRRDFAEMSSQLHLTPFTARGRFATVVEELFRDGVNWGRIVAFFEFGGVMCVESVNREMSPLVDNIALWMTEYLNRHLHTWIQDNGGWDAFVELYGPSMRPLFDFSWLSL

B1: SEQ ID NO: 1662 (peptide)
peptide: Ac-IWIAQALR[R8]IGDAIN[S5]YYA-NH2
modifications: staple 9-16
SMILES: CC[C@H](C)[C@H](NC(C)=O)C(=O)N[C@@H](Cc1c[nH]c2ccccc12)C(=O)N[C@H](C(=O)N[C@@H](C)C(=O)N[C@@H](CCC(N)=O)C(=O)N[C@@H](C)C(=O)N[C@@H](CC(C)C)C(=O)N[C@@H](CCCNC(=N)N)C(=O)N[C@]1(C)CCCCCCC=CCCC[C@@](C)(C(=O)N[C@@H](Cc2ccc(O)cc2)C(=O)N[C@@H](Cc2ccc(O)cc2)C(=O)N[C@@H](C)C(N)=O)NC(=O)[C@H](CC(N)=O)NC(=O)[C@H]([C@@H](C)CC)NC(=O)[C@H](C)NC(=O)[C@H](CC(=O)O)NC(=O)CNC(=O)[C@H]([C@@H](C)CC)NC1=O)[C@@H](C)CC
For the molecule B1, the Ki amounted to 3.4 nM with MCL-1, 14.1 nM with BCL-XL and 113 nM with BCL-2.

B2: SEQ ID NO: 1664 (peptide)
peptide: Ac-IWIAQAAR[R8]IGDAAN[S5]YYA-NH2
modifications: staple 9-16
SMILES: CC[C@H](C)[C@H](NC(C)=O)C(=O)N[C@@H](Cc1c[nH]c2ccccc12)C(=O)N[C@H](C(=O)N[C@@H](C)C(=O)N[C@@H](CCC(N)=O)C(=O)N[C@@H](C)C(=O)N[C@@H](C)C(=O)N[C@@H](CCCNC(=N)N)C(=O)N[C@]1(C)CCCCCCC=CCCC[C@@](C)(C(=O)N[C@@H](Cc2ccc(O)cc2)C(=O)N[C@@H](Cc2ccc(O)cc2)C(=O)N[C@@H](C)C(N)=O)NC(=O)[C@H](CC(N)=O)NC(=O)[C@H](C)NC(=O)[C@H](C)NC(=O)[C@H](CC(=O)O)NC(=O)CNC(=O)[C@H]([C@@H](C)CC)NC1=O)[C@@H](C)CC
Take B2: the results for the Ki with MCL-1, with BCL-XL and with BCL-2 were 177 nM, 154 nM and 502 nM, respectively.

B3: SEQ ID NO: 1674 (peptide)
peptide: Ac-IWIAQALR[R8]IGNAFN[S5]YYA-NH2
modifications: staple 9-16
SMILES: CC[C@H](C)[C@H](NC(C)=O)C(=O)N[C@@H](Cc1c[nH]c2ccccc12)C(=O)N[C@H](C(=O)N[C@@H](C)C(=O)N[C@@H](CCC(N)=O)C(=O)N[C@@H](C)C(=O)N[C@@H](CC(C)C)C(=O)N[C@@H](CCCNC(=N)N)C(=O)N[C@]1(C)CCCCCCC=CCCC[C@@](C)(C(=O)N[C@@H](Cc2ccc(O)cc2)C(=O)N[C@@H](Cc2ccc(O)cc2)C(=O)N[C@@H](C)C(N)=O)NC(=O)[C@H](CC(N)=O)NC(=O)[C@H](Cc2ccccc2)NC(=O)[C@H](C)NC(=O)[C@H](CC(N)=O)NC(=O)CNC(=O)[C@H]([C@@H](C)CC)NC1=O)[C@@H](C)CC
In the case of B3, the Ki amounted to 195 nM with MCL-1, 416 nM with BCL-XL and 405 nM with BCL-2.

B4: SEQ ID NO: 1667 (peptide)
peptide: Ac-IWIAQALR[R8]AGDAFN[S5]YYA-NH2
modifications: staple 9-16
SMILES: CC[C@H](C)[C@H](NC(C)=O)C(=O)N[C@@H](Cc1c[nH]c2ccccc12)C(=O)N[C@H](C(=O)N[C@@H](C)C(=O)N[C@@H](CCC(N)=O)C(=O)N[C@@H](C)C(=O)N[C@@H](CC(C)C)C(=O)N[C@@H](CCCNC(=N)N)C(=O)N[C@]1(C)CCCCCCC=CCCC[C@@](C)(C(=O)N[C@@H](Cc2ccc(O)cc2)C(=O)N[C@@H](Cc2ccc(O)cc2)C(=O)N[C@@H](C)C(N)=O)NC(=O)[C@H](CC(N)=O)NC(=O)[C@H](Cc2ccccc2)NC(=O)[C@H](C)NC(=O)[C@H](CC(=O)O)NC(=O)CNC(=O)[C@H](C)NC1=O)[C@@H](C)CC
B4: the inhibition constant Ki with MCL-1 came to 183 nM; with BCL-XL, 18.1 nM; with BCL-2 it was 59.6 nM.

B5: SEQ ID NO: 1665 (peptide)
peptide: Ac-IWIAQALR[R8]IADAFN[S5]YYA-NH2
modifications: staple 9-16
SMILES: CC[C@H](C)[C@H](NC(C)=O)C(=O)N[C@@H](Cc1c[nH]c2ccccc12)C(=O)N[C@H](C(=O)N[C@@H](C)C(=O)N[C@@H](CCC(N)=O)C(=O)N[C@@H](C)C(=O)N[C@@H](CC(C)C)C(=O)N[C@@H](CCCNC(=N)N)C(=O)N[C@]1(C)CCCCCCC=CCCC[C@@](C)(C(=O)N[C@@H](Cc2ccc(O)cc2)C(=O)N[C@@H](Cc2ccc(O)cc2)C(=O)N[C@@H](C)C(N)=O)NC(=O)[C@H](CC(N)=O)NC(=O)[C@H](Cc2ccccc2)NC(=O)[C@H](C)NC(=O)[C@H](CC(=O)O)NC(=O)[C@H](C)NC(=O)[C@H]([C@@H](C)CC)NC1=O)[C@@H](C)CC
As to B5, the values for the Ki with MCL-1, with BCL-XL and with BCL-2 were 96.3 nM, 7.7 nM and 84 nM, respectively.

B6: SEQ ID NO: 1669 (peptide)
peptide: Ac-IWIAQALR[R8]FGDAFN[S5]YYA-NH2
modifications: staple 9-16
SMILES: CC[C@H](C)[C@H](NC(C)=O)C(=O)N[C@@H](Cc1c[nH]c2ccccc12)C(=O)N[C@H](C(=O)N[C@@H](C)C(=O)N[C@@H](CCC(N)=O)C(=O)N[C@@H](C)C(=O)N[C@@H](CC(C)C)C(=O)N[C@@H](CCCNC(=N)N)C(=O)N[C@]1(C)CCCCCCC=CCCC[C@@](C)(C(=O)N[C@@H](Cc2ccc(O)cc2)C(=O)N[C@@H](Cc2ccc(O)cc2)C(=O)N[C@@H](C)C(N)=O)NC(=O)[C@H](CC(N)=O)NC(=O)[C@H](Cc2ccccc2)NC(=O)[C@H](C)NC(=O)[C@H](CC(=O)O)NC(=O)CNC(=O)[C@H](Cc2ccccc2)NC1=O)[C@@H](C)CC
As for B6, the Ki in the test with MCL-1 was 27.8 nM; in the test with BCL-XL it was 15.8 nM; with BCL-2, 68.5 nM.

B7: SEQ ID NO: 1672 (peptide)
peptide: Ac-IWFAQALR[R8]IGDQFN[S5]YYA-NH2
modifications: staple 9-16
SMILES: CC[C@H](C)[C@H](NC(C)=O)C(=O)N[C@@H](Cc1c[nH]c2ccccc12)C(=O)N[C@@H](Cc1ccccc1)C(=O)N[C@@H](C)C(=O)N[C@@H](CCC(N)=O)C(=O)N[C@@H](C)C(=O)N[C@@H](CC(C)C)C(=O)N[C@@H](CCCNC(=N)N)C(=O)N[C@]1(C)CCCCCCC=CCCC[C@@](C)(C(=O)N[C@@H](Cc2ccc(O)cc2)C(=O)N[C@@H](Cc2ccc(O)cc2)C(=O)N[C@@H](C)C(N)=O)NC(=O)[C@H](CC(N)=O)NC(=O)[C@H](Cc2ccccc2)NC(=O)[C@H](CCC(N)=O)NC(=O)[C@H](CC(=O)O)NC(=O)CNC(=O)[C@H]([C@@H](C)CC)NC1=O
Regarding B7, the values for the inhibition constant (Ki) with MCL-1, with BCL-XL and with BCL-2 were 29.3 nM, 25.9 nM and 205 nM, respectively.

B8: SEQ ID NO: 1671 (peptide)
peptide: Ac-IWFAQALR[R8]IGDAFN[S5]YYA-NH2
modifications: staple 9-16
SMILES: CC[C@H](C)[C@H](NC(C)=O)C(=O)N[C@@H](Cc1c[nH]c2ccccc12)C(=O)N[C@@H](Cc1ccccc1)C(=O)N[C@@H](C)C(=O)N[C@@H](CCC(N)=O)C(=O)N[C@@H](C)C(=O)N[C@@H](CC(C)C)C(=O)N[C@@H](CCCNC(=N)N)C(=O)N[C@]1(C)CCCCCCC=CCCC[C@@](C)(C(=O)N[C@@H](Cc2ccc(O)cc2)C(=O)N[C@@H](Cc2ccc(O)cc2)C(=O)N[C@@H](C)C(N)=O)NC(=O)[C@H](CC(N)=O)NC(=O)[C@H](Cc2ccccc2)NC(=O)[C@H](C)NC(=O)[C@H](CC(=O)O)NC(=O)CNC(=O)[C@H]([C@@H](C)CC)NC1=O
With B8, the Ki with MCL-1 was determined as 22 nM; with BCL-XL it was 28 nM; with BCL-2, 179 nM.

B9: SEQ ID NO: 1666 (peptide)
peptide: Ac-IWIAQALR[R8]IADQFN[S5]YYA-NH2
modifications: staple 9-16
SMILES: CC[C@H](C)[C@H](NC(C)=O)C(=O)N[C@@H](Cc1c[nH]c2ccccc12)C(=O)N[C@H](C(=O)N[C@@H](C)C(=O)N[C@@H](CCC(N)=O)C(=O)N[C@@H](C)C(=O)N[C@@H](CC(C)C)C(=O)N[C@@H](CCCNC(=N)N)C(=O)N[C@]1(C)CCCCCCC=CCCC[C@@](C)(C(=O)N[C@@H](Cc2ccc(O)cc2)C(=O)N[C@@H](Cc2ccc(O)cc2)C(=O)N[C@@H](C)C(N)=O)NC(=O)[C@H](CC(N)=O)NC(=O)[C@H](Cc2ccccc2)NC(=O)[C@H](CCC(N)=O)NC(=O)[C@H](CC(=O)O)NC(=O)[C@H](C)NC(=O)[C@H]([C@@H](C)CC)NC1=O)[C@@H](C)CC
As to B9, the Ki was 116 nM in the test with MCL-1, 7.7 nM in the test with BCL-XL and 25.6 nM with BCL-2.

B10: SEQ ID NO: 1670 (peptide)
peptide: Ac-IWIAQALR[R8]FGDQFN[S5]YYA-NH2
modifications: staple 9-16
SMILES: CC[C@H](C)[C@H](NC(C)=O)C(=O)N[C@@H](Cc1c[nH]c2ccccc12)C(=O)N[C@H](C(=O)N[C@@H](C)C(=O)N[C@@H](CCC(N)=O)C(=O)N[C@@H](C)C(=O)N[C@@H](CC(C)C)C(=O)N[C@@H](CCCNC(=N)N)C(=O)N[C@]1(C)CCCCCCC=CCCC[C@@](C)(C(=O)N[C@@H](Cc2ccc(O)cc2)C(=O)N[C@@H](Cc2ccc(O)cc2)C(=O)N[C@@H](C)C(N)=O)NC(=O)[C@H](CC(N)=O)NC(=O)[C@H](Cc2ccccc2)NC(=O)[C@H](CCC(N)=O)NC(=O)[C@H](CC(=O)O)NC(=O)CNC(=O)[C@H](Cc2ccccc2)NC1=O)[C@@H](C)CC
Consider B10, for which the Ki in the test with MCL-1 came to 74.1 nM; in the test with BCL-XL, 25.6 nM; with BCL-2, 66.1 nM.

B11: SEQ ID NO: 1668 (peptide)
peptide: Ac-IWIAQALR[R8]AGDQFN[S5]YYA-NH2
modifications: staple 9-16
SMILES: CC[C@H](C)[C@H](NC(C)=O)C(=O)N[C@@H](Cc1c[nH]c2ccccc12)C(=O)N[C@H](C(=O)N[C@@H](C)C(=O)N[C@@H](CCC(N)=O)C(=O)N[C@@H](C)C(=O)N[C@@H](CC(C)C)C(=O)N[C@@H](CCCNC(=N)N)C(=O)N[C@]1(C)CCCCCCC=CCCC[C@@](C)(C(=O)N[C@@H](Cc2ccc(O)cc2)C(=O)N[C@@H](Cc2ccc(O)cc2)C(=O)N[C@@H](C)C(N)=O)NC(=O)[C@H](CC(N)=O)NC(=O)[C@H](Cc2ccccc2)NC(=O)[C@H](CCC(N)=O)NC(=O)[C@H](CC(=O)O)NC(=O)CNC(=O)[C@H](C)NC1=O)[C@@H](C)CC
Take B11: the values for the Ki with MCL-1, in the test with BCL-XL and with BCL-2 were 122 nM, 1.9 nM and 4.8 nM, respectively.
